The results in this text go back to the nanobody polyreactivity screen of Harvey et al. (2022).

The series can be described thus: yeast display, Sf9 membrane polyspecificity reagent, FACS + sequencing; frameworks hold sequencing errors. Summed up: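 Genes from sorted yeast were amplified by colony PCR, read by MiSeq 2 × 250 sequencing and filtered on CDR length. These cells carried a synthetic nanobody library in Saccharomyces cerevisiae BJ5465 and were sorted by FACS into low and high (top ~1%) gates on anti-HA and streptavidin fluorescence. Polyreactivity is labelled according to the gate of origin.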
As to “HVQLVESGAGLVQAAGSLRLSCAASGRPLDSNAMGGYRQAPGKDRELVAAITYSGGSTYYADSVKGRFTISRDNAKNTVYLQMNSLKPEDTAVYYCAKVGRLYRVGGYDYWGQGTQVTVSS”, the “polyreactivity (PSR sort gate)” value was “low polyreactivity”.
Regarding “HVQLVESGGGFVQAAGSLRLSCAASGSIFAGYAMGWYRQAPGKERELVAAINSSGGSTYYADSVKGRFTISRDNSKNTVYLQMKSLKPEDTAVYDCNRVYKRYYIGGYDYWGQGTQVTVSS”, the “polyreactivity (PSR sort gate)” value is listed as “high polyreactivity”.
As for “HVQLVESGGGLVQAGASLRLICAASGRIFWGYAMGWSRHAPGKERELVAGITYSGGSTYYADSVKGRFTISRDNAKNTVYLQMNSLKPEDTADYYCAAAKSYRSGSWYEYWGQGTQVTVSS”, the entry is “high polyreactivity”; as for “HVQLVESGGGLVQAGGILRLSCAASGRIFYRYEKGWYRQAPGKERELVAAITAGGNKYYADSVKGRFTISRDNAKNTVYLQMNSLKPEDTAVDYCGAGTTYSRYSVTRVDYWGQGTQVTVSS”, “high polyreactivity”; as for “HVQLVESGGGLVQAGGRLRLSCAASGRTFWYYTMGWYRQAPGKDRELVAAITSVGSTYYADSVKGRFTISRDNAKNTVYLQMNSLKPEDTAVYYCAKLYSYTHQSFDHWGQGTQVTVSS”, “high polyreactivity”.
Consider “HVQLVESGGGLVQAGGRLRLSCAPSGSIFGLYGMGWYRQAPGKEREFVAAISQSGGRTYYADSVKGRFTISRDNAQNTVYLQMNSLKPEDTAVYYCATYVQRRGQYGIYDYWGQGTQVTVSS”, for which the “polyreactivity (PSR sort gate)” value is given as “high polyreactivity”.
Under “HVQLVESGGGLVQAGGSLRISCAASGRIFSTYTMGWYRQAPGKERELVAAIRANCGSTYYADSVKGRFTISRDNAKNTVYLQMNSLKPEDTAVYYCAALYRRYPYHYDSWGQGTQVTVSS” stands “high polyreactivity”; under “HVQLVESGGGLVQAGGSLRLSCAASGFTFDYNTMGWSRQAPGKEREVVAGISRGGGSTYYADSVKGRFTISRDNAKNTVYLQMNSLKPEDTAVYYCNTVLKRQRKNEYWGQGTQVTVSS”, “high polyreactivity”.
Under “HVQLVESGGGLVQAGGSLRLSCAASGFTFNYNALGGYRQAPGKERELVAAIRRSGGSTYYADSVKGRFTISRDNAKNTVYLQMNSLKPEDTAVYYGAARQSFLYGDWGQGTQVTVSS” stands “high polyreactivity”.
As for “HVQLVESGGGLVQAGGSLRLSCAASGFTFSGYVMGWYRQAPGKERELVAAISNSGGRTYADSVKGRFTISRDNAKNTVYLQMNSLKPEDTAVYYCAKKPGGFSQASRVDYDYWGQGTQVTVSS”, the entry is “low polyreactivity”.
As for “HVQLVESGGGLVQAGGSLRLSCAASGFTVYRYTLGWYRQAPGKERELVAAITWSGGNTYYADSVKGRFTISRDNAKNTVYLQMNSLKPEDTAVYYCAAYKPYSKSNYRGQGTQVTVSS”, the “polyreactivity (PSR sort gate)” value is listed as “high polyreactivity”.
With “HVQLVESGGGLVQAGGSLRLSCAASGGIFYGNVMGWYRQAPGKERELVADITSVGSTYYADSVKGRFTISRDNAKNTVYLQMNSLKPEDTAVYYCAAEPDHVADSHSGYDYWGQGTQVTVSS”, the “polyreactivity (PSR sort gate)” value is “low polyreactivity”.
As for “HVQLVESGGGLVQAGGSLRLSCAASGGTFTKYAMGWFRQAPGTEMELVAAISWRGTSTYYADSVKGRFTISRDNAKNTVYLQLYSLKPEDTAVHYCLPWVGYGRYKPGYKYDYWGQGTQVTVSS”, the “polyreactivity (PSR sort gate)” value was “high polyreactivity”.
As to “HVQLVESGGGLVQAGGSLRLSCAASGLIFYNYAMGWYRQAPGKERELVAAITGSGGSTYYADSVKGRFTISRDNAKNTVYLQMNSLKPEDTAVYYCAADGIYTFEYWGQGTLVTVSS”, the “polyreactivity (PSR sort gate)” value was “low polyreactivity”.
Consider “HVQLVESGGGLVQAGGSLRLSCAASGLTFDVNAMGWYRQAARKERELVAAITADDGSTYYADSVKGRFTISRDNAKNTVYLQMNSLKPEDTAVYYCAADYVNLPYIMDYWGQGTQVTVSS”, for which the “polyreactivity (PSR sort gate)” value is given as “low polyreactivity”.
Under “HVQLVESGGGLVQAGGSLRLSCAASGLTFSRYTMGWYRQAPGKERELVAAISRSGASTYYADSVKGRFTISRDNAKNTVYLQMNSLKPEDTAVYYCAKTSTSYGSLRKVTPYPLDYWGQGTQVTVSS” stands “high polyreactivity”.
As for “HVQLVESGGGLVQAGGSLRLSCAASGRISLFNAMGWYRQAPGKERELVAAITYTGGSTYYADSVKGRFTISRDNAKNTVYLQMNSLKPEDTAVYYCAAEYYYVYTYDYWGQGTQVTVSS”, the “polyreactivity (PSR sort gate)” value was “high polyreactivity”.
For “HVQLVESGGGLVQAGGSLRLSCAASGRIYWANAKGRYRQAPGKERELVAAISYSGGTYYADSVKGGFTISRDNAKNTVYLQMNSLKPADTAVYFCAAVDRRDGTKRWGFDYWGQGTQVTVSS”, the “polyreactivity (PSR sort gate)” value is on record as “high polyreactivity”.
As to “HVQLVESGGGLVQAGGSLRLSCAASGRTFNVNAMGWYRQAPGKERELVAAIDFSDGRTYYADSVKGRFTISRDNAKNTVYLQMNSLKPEDTAVYYCARSFRVGNTWYDYWGQGTQVTVSS”, the “polyreactivity (PSR sort gate)” value is listed as “high polyreactivity”.
For the sequence “HVQLVESGGGLVQAGGSLRLSCAASGRTFVNNAMGWYRQAPGKERELVAAISQSGSRTYYADSVKGRFTISRDNAKNTVYLQMNSLKPEDTAVYYCAARGARYSTSDYWGQGTQVTVSS”, the “polyreactivity (PSR sort gate)” value was “high polyreactivity”.
As for “HVQLVESGGGLVQAGGSLRLSCAASGSIFFRNTMGWTRQAPGKEREKVAAITRGGGRTYYADSVKGRFTISRDNAKNTVYLQMNSLQPEDTAVYYCNTADYHGRWAFAWYGDYWGQGTQVTVSS”, the entry is “high polyreactivity”; as for “HVQLVESGGGLVQAGGSLRLSCAASGSIFWRYAMGWYRQAPGKERELVAAITWSGGTSYADSVKGRFTISRDNAKNTVYLQMNSLKPEDTAVYYCNADGLSYYLYDYWGQGTQVTVSS”, “low polyreactivity”.
Consider “HVQLVESGGGLVQAGGSLRLSCAASGSSLDYYVMGWYRQAPGNERELVAAIRGGGSTYYADSVKGRFTISRDNAKNTVYLQMKSLKPEDTEVYYCAKDSQTARDFDYWGQGTQVTVSS”, for which the “polyreactivity (PSR sort gate)” value is “low polyreactivity”.
“HVQLVESGGGLVQAGGSLRLSCAASGSSSAKYAMGWYRQAPGKERELVAAITSRADSTYYADSVKGRFTISRDNAKNTVYLQMNSLKPEDTAVYYCNVRITVYRSDVWYFIYDYWGQGTQVTVSS”: the “polyreactivity (PSR sort gate)” value is recorded as “low polyreactivity”.
“HVQLVESGGGLVQAGGSLRLSCAASGSTFGGNAMGWYRQAPGKERELVAAISKSGGRTFYADSVKGRFTISRDNAKNTVYLQMISLKPEDTAVYYCAAQYRGYGYWGQGTQVTVSS”: the “polyreactivity (PSR sort gate)” value is recorded as “high polyreactivity”.
Under “HVQLVESGGGLVQAGGSLRLSCAASGSTFGSYALGWYRQAPGKERELVADISSRGASTYNADSVKGRFTISRDNAKNTVYLQMNSLKPEDTAVSYCATDKLYGRTVRMDYWGQGTQVTVSS” stands “low polyreactivity”; under “HVQLVESGGGLVQAGGSLRLSCAASGSTFGYYTMGWYREAPGKERELVAAISWSGGSTYYADSVKGRFTISRDNAKNTVYLQMNRLKPEDTAVYYCAALGYTYKYYSYYWGQGTQVTVSS”, “high polyreactivity”.
For the sequence “HVQLVESGGGLVQAGGSLRLSCAASGSTFIGYDMGWYTQAPGKERELVAAISYYDGTYYADSVNGSFTISRDNAKNTVYLQMNTLKPEDTAVYFCGVYRYDYWGQGTQVTVSS”, the “polyreactivity (PSR sort gate)” value is recorded as “low polyreactivity”.
Under “HVQLVESGGGLVQAGGSLRLSCAASGSTFSAYAMGWDRQAPGKERELVASISYSGSSTYYADSVKGRFTISRDNAKNTVYLHMNSLNPEDTAVSSCAADDRYWGPGGPLSRWSRGMYYWGQGTQVTVSS” stands “high polyreactivity”; under “HVQLVESGGGLVQAGGSLRLSCAASGSTFSSYAMGWYRQAPGQERELVAAITGGGANTYYADSVKGRFTISRDNAKNTVYLQMNSLKPEDTAVYYCNARSGYLHSKWTGYYWGQGTQVTVSS”, “low polyreactivity”.
In the case of “HVQLVESGGGLVQAGGSLRLSCAPSGRTFIGYAMGWYRQAPGKERELVAAITSRGRTNYADSVKGRFTISRDNAKNTVYLQMNSLNPEDTAVYYCAARTYGYWYYGFRGDYWGQGTQVTVSS”, the “polyreactivity (PSR sort gate)” value is recorded as “high polyreactivity”.
As for “HVQLVESGGGLVQAGGSLRLSCGASGRIFRGNVMGWYRQAPGTERELVAAISWSGGSSYADAVKGRFSISRDNAKNTVYLQMNRLKPDDTAVYYWNADSLDGPKFDYWGQGTQVTVSS”, the entry is “low polyreactivity”.
In the case of “HVQLVESGGGLVQAGGSLRLSFAASGFTFRSYAMGWYRKAPGQERELVAAINWRGDSTYYADSVKGRFTISRDNAKNTVYLQMNSLNPEDTAVYYCNAYSGYIRRTASDYWGQGTQVTVSS”, the “polyreactivity (PSR sort gate)” value is “high polyreactivity”.
As for “HVQLVESGGGLVQAGRSLRFSCAASGSIFLYNAMGWYRQAPGKERELVAAISKSGGSTYYADSVKGRFTISRDNAKNTVYLQMNSLKPEDTAVYYCAAGYGRRIRYCSEYDYWGQGTQVTVSS”, the entry is “low polyreactivity”; as for “HVQLVESGGGLVQAGVSLRLSCAASGRIFVLYTRGWYRQAPGKDRELVAAISRRGGNTNYADSVKGRFTISRDNAMNTVYLQMNSLKPEDTAVYYCNARWTGARYYYYPMDYWGQGTQVTVSS”, “high polyreactivity”; as for “HVQQQESGGGLVQAGGSLRLSCAASGNISYSRNMGWYRQAPGKERELVAAIDRGAITYYADSVQGRFTISRDNAKNTVYLQIYSLKPEDTAVYYCAAEYHDRWDHRYWGQGTQVTVSS”, “high polyreactivity”.
As for “HVQVVESGGGLVQAGGSLRLSCAASGRIFLLYTMGWYRQAPGKERELVAAISSDDSTNYADSVKGRFTISRDNAKNTVYIQMNSLKPEDTAVYYCAAGRKSYYRIYSEYVEFDYWGQGTQVTVSS”, the “polyreactivity (PSR sort gate)” value is “low polyreactivity”.
Under “HVRLQESGGGLVQAGGSLRQSCAASGAISPYYDMGWYRLAPGKEREFVASIAHGGTTYYADSVKGRFTTSRDNAKNTVYLQMNSLKPEDTAVYYCAVAYDVWHSHIYRGQGTQVTVSS” stands “high polyreactivity”; under “HVRLQESGGGLVQAGGSLRQSCAASGAISPYYDMGWYRLAPGKEREFVASIAHGGTTYYADSVKGRFTTSRDNAKYNVYLRMNRLKPEDTAVYFCAAPKRYLGDYWGQGTQVTVSS”, “high polyreactivity”.
Under “IIPAGGSLRLSCAASGATLIGYTMGWYRQAPGKERELVDAITWGAGSTNYADSVKGRFTISRDNAKNTVYLQMNSLKPEDTAVYDCNADSISDPRYLGEYDYWGQGTQVTVSS” stands “low polyreactivity”.
Regarding “IIQAGGSLRLSCAASGRTFSGYAMGWYRQAPGKERELIADITSGGSTYYADSVKGRFTISRDNAKNTVYLQMNSLKPEDTAVYYCAAERQIRSFWSSRTYEFGYWGQGTQVTVSS”, the “polyreactivity (PSR sort gate)” value is recorded as “low polyreactivity”.
